Data on five molecules can be found in paper PMC6220480.

B1: ULBP3 (UL16 binding protein 3), recombinant (ligand)
chain: DAHSLWYNFTIIHLPRHGQQWCEVQSQVDQKNFLSYDCGSDKVLSMGHLEEQLYATDAWGKQLEMLREVGQRLRLELADTELEDFTPSGPLTLQVRMSCECEADGYIRGSWQFSFDGRKFLLFDSNNRKWTVVHAGARRMKEKWEKDSGLTTFFKMVSMRDCKSWLRDFLMHRKKRLEPTAPPTMAPG
B2: ULBP1 (UL16 binding protein 1), recombinant (ligand)
chain: GWVDTHCLCYDFIITPKSRPEPQWCEVQGLVDERPFLHYDCVNHKAKAFASLGKKVNVTKTWEEQTETLRDVVDFLKGQLLDIQVENLIPIEPLTLQARMSCEHEAHGHGRGSWQFLFNGQKFLLFDSNNRKWTALHPGAKKMTEKWEKNRDVTMFFQKISLGDCKMWLEEFLMYWEQMLDPTKPPSLAPG
B3: ULBP2 (UL16 binding protein 2), recombinant (ligand)
chain: GRADPHSLCYDITVIPKFRPGPRWCAVQGQVDEKTFLHYDCGNKTVTPVSPLGKKLNVTTAWKAQNPVLREVVDILTEQLRDIQLENYTPKEPLTLQARMSCEQKAEGHSSGSWQFSFDGQIFLLFDSEKRMWTTVHPGARKMKEKWENDKVVAMSFHYFSMGDCIGWLEDFLMGMDSTLEPSAGAPLAMSS

A value given as a limit tells only on which side of the number the result lay.

The experiment concerns the target NKG2D-based chimeric antigen receptor of CYAD-01 cells (full length human NKG2D fused to the CD3zeta signalling domain) (UniProt P26718).
Regarding “MICA (major histocompatibility complex class I chain-related A), recombinant (from UniProt Q29983 24-383) (ligand)”, the cytokine secretion by CYAD-01 cells cultured with plate-bound ligand was > 0.25 µg/mL.
Then “MICB (major histocompatibility complex class I chain-related B), recombinant (from UniProt Q29980 23-383) (ligand)”, with > 0.25 µg/mL.
Then B1, with > 5 µg/mL.
Then B2, with > 5 µg/mL.
As to B3, the cytokine secretion by CYAD-01 cells cultured with plate-bound ligand was > 5 µg/mL.
